In assay [1] the test system is β-catenin-mediated transactivation. Put plainly: TOPFLASH/FOPFLASH luciferase transactivation in CHO cells. In kind it is cell-based. The note with it: TOPFLASH with LEF-1 and β-catenin vs TOPFLASH and LEF-1 without β-catenin. On the procedure:
(§1) Cell culture and transfections: CHO and SW480 human colon carcinoma cells were cultured in Dulbecco's modified Eagle's medium containing 10% fetal calf serum in an 8% CO2 incubator at 37° C. Transfections were performed using Lipofectamine (Gibco, BRL, USA) according to the manufacturer's instructions. Stably transfected CHO clones were generated by co-transfection with a plasmid encoding the puromycin resistance gene. Two days after transfection, cells were replated in the presence of 10 μg/ml puromycin (Sigma, Holon, Israel). Stable clones were isolated 2 weeks later and tested for the expression of the transgene by Western blot analysis.
(§2) Transactivation assays: CHO cells were transfected with TOPFLASH or FOPFLASH vectors (van de Wetering et al., 1997, ibid) and with pCDNA3 coding for β-galactosidase to normalize for transfection efficiency. The transfection mixture also contained either β-catenin, LEF-1 or cadherin derivatives in different combinations, as indicated. SW480 cells were transfected with TOPFLASH and cadherin derivatives. […] The reactions were stopped with 1 M Na2CO3 and the absorbance at 420 nm was determined. […] The luciferase reaction was monitored by a TD-20e luminometer (Turner, USA) and normalized for the β-galactosidase activity. […]

The test system of assay [2] is LEF-1-driven transcription. Put plainly: LEF-1 consensus (TOPFLASH) transactivation in 293 cells. The class given is cell-based, human. The note with it: FIG. 18B. The method, then: (§3) Cell Culture and Transfections: Canine kidney epithelial cells MDCK, human fibrosarcoma HT1080, 293-T human embryonic kidney cells, Balb/C mouse 3T3 and human colon carcinoma SW480 cell lines were cultured in Dulbecco's modified Eagle's medium supplemented with 10% calf serum (Gibco, Grand Island, N.Y.) at 37° C. in the presence of 7% CO2. The human renal carcinoma cell line KTCTL60 was grown in RPMI medium and 10% calf serum. Cells were transiently transfected with the cDNA constructs described below, using Ca^2+-phosphate or lipofectamine (Gibco) and the expression of the transgene was assessed between 24 and 48 hours after transfection. In some experiments, the expression of the stably transfected NH2 terminus-deleted β-catenin (Δ57) was enhanced in HT1080 cells by overnight treatment with 2 mM sodium butyrate.
(§4) A plasmid encoding β-galactosidase (0.5 μg) was cotransfected to enable normalization for transfection efficiency. The relevant plasmid expressing catenin constructs (4.5 μg) was co-transfected with the reporter, or an empty expression vector was included. After 24-48 hours expression of the reporter (luciferase) and the control (β-galactosidase) genes were determined using enzyme assay systems from Promega (Madison, Wis.).

A further assay relates to CHO cells. Nature of the assay: Immunofluorescence localization in CHO cells. The note with it: stably transfected CHO cells, FIG. 4. The class given is cell-based. The text has this:
(§5) Immunofluorescence microscopy: Cells cultured on glass coverslips were fixed with 3% paraformaldehyde in phosphate-buffered saline (PBS) and permeabilized with 0.5% Triton X-100. CHO cells were immunofluorescently labeled as described (Levenberg S. et al. (1998) Long-range and selective autoregulation of cell-cell and cell-matrix adhesions by cadherin or integrin ligands. J. Cell Sci. 111:347-357). Nuclei were visualized using DAPI and the fluorescence was examined using a Zeiss Axiophot microscope and a x100/1.3 Planapochromat objective.

Assay [3] deals with β-catenin-mediated transactivation. Nature of the assay: TOPFLASH luciferase transactivation in SW480 cells (Example 1). In kind it is cell-based, human. The conditions noted are these: SW480 cells transfected with TOPFLASH and N-cadherin derivative, FIG. 6A. The method, then:
as §1, §2

The next assay deals with SW480 cells. Nature of the assay: Immunofluorescence localization in SW480 cells (Example 1). In kind it is cell-based, human. The note with it: transfected SW480 cells, FIG. 6B.
From the text: as §5

For assay [4], the target named is T1, β-catenin (Cricetulus griseus, UniProt G3H996).
T1 construct: resulting from the stabilization of the endogenous β-catenin by the transfected cadherin derivatives; endogenous in cells; host or cells: CHO cells, stably or transiently transfected with cadherin derivatives only
T1 sequence (G3H996 1-781): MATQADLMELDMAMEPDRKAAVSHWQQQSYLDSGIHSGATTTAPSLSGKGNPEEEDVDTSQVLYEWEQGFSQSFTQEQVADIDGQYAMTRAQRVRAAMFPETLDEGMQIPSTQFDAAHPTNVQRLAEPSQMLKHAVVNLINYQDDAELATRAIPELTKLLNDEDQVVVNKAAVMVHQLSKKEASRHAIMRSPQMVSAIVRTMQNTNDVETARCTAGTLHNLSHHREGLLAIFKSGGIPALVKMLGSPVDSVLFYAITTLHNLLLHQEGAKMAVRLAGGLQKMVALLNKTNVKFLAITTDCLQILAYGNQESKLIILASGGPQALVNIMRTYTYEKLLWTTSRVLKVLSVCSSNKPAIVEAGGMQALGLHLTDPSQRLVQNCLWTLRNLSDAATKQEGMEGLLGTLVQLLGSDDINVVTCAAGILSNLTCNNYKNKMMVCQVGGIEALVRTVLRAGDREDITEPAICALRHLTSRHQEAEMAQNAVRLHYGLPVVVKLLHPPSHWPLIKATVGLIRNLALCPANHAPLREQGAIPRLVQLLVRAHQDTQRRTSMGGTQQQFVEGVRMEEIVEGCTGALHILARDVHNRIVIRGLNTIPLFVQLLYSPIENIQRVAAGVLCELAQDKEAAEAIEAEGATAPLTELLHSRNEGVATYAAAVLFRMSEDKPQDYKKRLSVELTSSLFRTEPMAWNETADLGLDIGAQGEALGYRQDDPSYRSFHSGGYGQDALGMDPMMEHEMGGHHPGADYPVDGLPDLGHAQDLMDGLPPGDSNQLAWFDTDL
Put plainly: Co-immunoprecipitation of cadherin derivatives with β-catenin in CHO cells. The class given is binding. The note with it: stably transfected CHO cells, FIG. 2B. From the text: Immunoblotting and immunoprecipitation: The following antibodies were used: polyclonal pan-cadherin or monoclonal anti cadherin (CH-19) and polyclonal anti β-catenin antibodies were from Sigma (Holon, Israel). Monoclonal anti β-catenin, 5H10 (from M. Wheelock), anti IL2Rα (from UBI), anti flag (M2, from IBI), anti HA (clone 12CA5, from Boehringer Mannheim, Germany), anti GFP (polyclonal, from Clontech, Palo Alto, Calif.), anti LEF-1 (polyclonal, kindly provided by Dr. R. Grosschedl). Secondary antibodies for Western blotting were goat anti rabbit or anti mouse conjugated to HRP (Amersham, Buckinghampshire, UK), and for immunofluorescence analysis the secondary antibodies were FITC-goat anti mouse (Cappel, USA) or rhodamine-anti rabbit antibodies (from Jackson Immuno-Research, West Grove, Pa.). Cells were harvested in Laemmli's sample buffer and equal amounts of total cell protein from the different clones, or from transient transfections, were separated by SDS-PAGE, electrotransferred to nitrocellulose and incubated with the different antibodies. For immunoprecipitation, cells were harvested in IP buffer (20 mM Tris pH 8.0, 1% Triton X-100, 140 mM NaCl, 10% glycerol, 1 mM EGTA, 1.5 mM MgCl2, 1 mM DTT, 1 mM sodium vanadate, and 50 μg/ml PMSF). […]

The target of assay [5] is T1, β-catenin. Nature of the assay: β-catenin level in CHO cells by Western blot. In kind it is cell-based. The note with it: stably transfected CHO cells, FIG. 2A. The method, then:
as §1
Immunoblotting and immunoprecipitation: The following antibodies were used: polyclonal pan-cadherin or monoclonal anti cadherin (CH-19) and polyclonal anti β-catenin antibodies were from Sigma (Holon, Israel). Monoclonal anti β-catenin, 5H10 (from M. Wheelock), anti IL2Rα (from UBI), anti flag (M2, from IBI), anti HA (clone 12CA5, from Boehringer Mannheim, Germany), anti GFP (polyclonal, from Clontech, Palo Alto, Calif.), anti LEF-1 (polyclonal, kindly provided by Dr. R. Grosschedl). […]
In general terms: A western blot detects proteins with antibodies after separation by electrophoresis.

In assay [6] the test system is β-catenin-dependent transactivation. Nature of the assay: LEF-1 consensus luciferase transactivation in SW480 cells (Example 2). In kind it is cell-based, human. The note with it: co-transfection, FIG. 19A. The method, then:
as §3, §4

B1: β-catenin: transfected β-catenin cDNA construct (protein, UniProt P35222 2-781, looked up)
Catenin beta-1: ATQADLMELDMAMEPDRKAAVSHWQQQSYLDSGIHSGATTTAPSLSGKGNPEEEDVDTSQVLYEWEQGFSQSFTQEQVADIDGQYAMTRAQRVRAAMFPETLDEGMQIPSTQFDAAHPTNVQRLAEPSQMLKHAVVNLINYQDDAELATRAIPELTKLLNDEDQVVVNKAAVMVHQLSKKEASRHAIMRSPQMVSAIVRTMQNTNDVETARCTAGTLHNLSHHREGLLAIFKSGGIPALVKMLGSPVDSVLFYAITTLHNLLLHQEGAKMAVRLAGGLQKMVALLNKTNVKFLAITTDCLQILAYGNQESKLIILASGGPQALVNIMRTYTYEKLLWTTSRVLKVLSVCSSNKPAIVEAGGMQALGLHLTDPSQRLVQNCLWTLRNLSDAATKQEGMEGLLGTLVQLLGSDDINVVTCAAGILSNLTCNNYKNKMMVCQVGGIEALVRTVLRAGDREDITEPAICALRHLTSRHQEAEMAQNAVRLHYGLPVVVKLLHPPSHWPLIKATVGLIRNLALCPANHAPLREQGAIPRLVQLLVRAHQDTQRRTSMGGTQQQFVEGVRMEEIVEGCTGALHILARDVHNRIVIRGLNTIPLFVQLLYSPIENIQRVAAGVLCELAQDKEAAEAIEAEGATAPLTELLHSRNEGVATYAAAVLFRMSEDKPQDYKKRLSVELTSSLFRTEPMAWNETADLGLDIGAQGEPLGYRQDDPSYRSFHSGGYGQDALGMDPMMEHEMGGHHPGADYPVDGLPDLGHAQDLMDGLPPGDSNQLAWFDTDL
As to B1, in assay [1], the “increase in luciferase activity” value is reported as “about 5 fold”. Moreover, in assay [2], the “activation of LEF-1-driven transcription” value is reported as “potent transcriptional co-activator”.

B2: N-cadherin: Full length chicken N-cadherin cloned into the pECE expression vector (protein)
chain: DWVIPPINLPENSRGPFPQELVRIRSDRDKSLSLRYSVTGPGADQPPTGIFIINPISGQLSVTKPLDREQIASFHLRAHAVDVNGNQVENPIDIVINVIDMNDNRPEFLHQVWNGTVPEGSKPGTYVMTVTAIDADDPNAQNGMLRYRILSQAPSSPSPNMFTINNETGDIITVAAGLDREKVQQYTLIIQATDMEGNPTYGLSNTATAVITVTDVNDNPPEFTAMTFYGEVPENRVDVIVANLTVTDKDQPHTPAWNARYQMTGGDPTGQFTILTDPNSNDGLVTVVKPIDFETNRMFVLTVAAENQVPLAKGIQHPPQSTATVSITVIDVNESPYFVPNPKLVRQEEGLLAGSMLTTFTARDPDRYMQQTSLRYSKLSDPANWLKIDPVNGQITTTAVLDRESIYVQNNMYNATFLASDNGIPPMSGTGTLQIYLLDINDNAPQVNPKEATTCETLQPNAINITAVDPDIDPNAGPFAFELPDSPPSIKRNWTIVRISGDHAQLSLRIRFLEAGIYDVPIVITDSGNPHASSTSVLKVKVCQCDINGDCTDVDRIVGAGLGTGAIIAILLCIIILLILVLMFVVWMKRRDKERQAKQLLIDPEDDVRDNILKYDEEGGGEEDQDYDLSQLQQPDTVEPDAIKPVGIRRLDERPIHAEPQYPVRSAAPHPGDIGDFINEGLKAADNDPTAPPYDSLLVFDYEGSGSTAGSLSSLNSSSSGGEQDYDYLNDWGPRFKKLADMYGGGDD
As for B2, in the assay with CHO cells, the “subcellular localization of cadherin derivative and β-catenin” value is on record as “mainly associated with cell-cell junctions”. Moreover, the “inhibition of TOPFLASH reporter (luciferase) activity” value in assay [3] is listed as “about 70%”. The “subcellular localization of β-catenin” value with SW480 cells is “binding of the endogenous β-catenin to the plasma membrane”. For the same molecule, in the assay with β-catenin [4], the “interaction with β-catenin by co-immunoprecipitation” value is listed as “direct interaction”. For the same molecule, the “effect on β-catenin levels” value with β-catenin [5] is reported as “increase in β-catenin levels”. Further, the “effect on constitutive LEF-1 driven transcription” value in assay [6] is on record as “effectively blocked”.
